Measurements: US20210063414A1, “METHODS FOR PREVENTING AND/OR TREATING BONE LOSS CONDITIONS BY MODULATING IRISIN” (Dana-Farber Cancer Institute, Inc., priority 2018, published 2021)

Legend:
integrin α11/β1 = target: T1, integrin α11/β1 (Homo sapiens, UniProt P05556+Q9UKX5); assay: FAK phosphorylation in HEK293T cells with forced expression of integrin α11/β1; assay type: cell-based
T1 construct: expressed in transfected cells; host or cells: HEK293T
Procedure: 100 nM irisin was incubated with 5 nM indicated his-tag integrins followed by immunoprecipitation using Ni-NTA agaroses. Precipitated integrins and co-precipitated irisin were analyzed by immunoblot analysis. […] HEK293T cells were seeded and incubated until 50% cell density. The cells were transfected with 0.1 μg plasmids of indicated integrins. After 48 hours, the cells were re-split to indicated dose of vitronectin-coated plates. Cells were incubated with culture medium for 3 hours. Cells were lysed to detect the indicated protein level using immunoblot analysis. FIG. 15C and FIG. 15D show the immunoblot data. Cells were treated and analyzed as FIG. 14B except using plasmids encoding integrin α5/β1 or integrin α11/β1 (FIG. 15C) integrin αV/β1(FIG. 15D).
HEK293T cells were set up for experiments at 1×10^5 cells per well in 6 well plate. On day 2, cells were transiently transfected with the indicated plasmids with FuGENE® 6 reagent (Roche Applied Science) according to the manufacturer's protocol. […]
Cells were harvested in RIPA buffer containing protease-inhibitor cocktail and phosphataseinhibitor cocktail. […] Protein levels were analyzed via western blot using indicated antibody. […] Protein levels were analyzed using western blot against indicated antibody.

integrin αV/β3 = target: T2, integrin αV/β3 (Homo sapiens, UniProt P05106+P06756); assay: FAK phosphorylation in HEK293T cells with forced expression of integrin αV/β3; assay type: cell-based; conditions: HEK293T, forced expression of integrin αV/β3, irisin 5 minutes
T2 construct: expressed in transfected cells; host or cells: HEK293T
T2 sequence (P06756 31-889 limits assumed): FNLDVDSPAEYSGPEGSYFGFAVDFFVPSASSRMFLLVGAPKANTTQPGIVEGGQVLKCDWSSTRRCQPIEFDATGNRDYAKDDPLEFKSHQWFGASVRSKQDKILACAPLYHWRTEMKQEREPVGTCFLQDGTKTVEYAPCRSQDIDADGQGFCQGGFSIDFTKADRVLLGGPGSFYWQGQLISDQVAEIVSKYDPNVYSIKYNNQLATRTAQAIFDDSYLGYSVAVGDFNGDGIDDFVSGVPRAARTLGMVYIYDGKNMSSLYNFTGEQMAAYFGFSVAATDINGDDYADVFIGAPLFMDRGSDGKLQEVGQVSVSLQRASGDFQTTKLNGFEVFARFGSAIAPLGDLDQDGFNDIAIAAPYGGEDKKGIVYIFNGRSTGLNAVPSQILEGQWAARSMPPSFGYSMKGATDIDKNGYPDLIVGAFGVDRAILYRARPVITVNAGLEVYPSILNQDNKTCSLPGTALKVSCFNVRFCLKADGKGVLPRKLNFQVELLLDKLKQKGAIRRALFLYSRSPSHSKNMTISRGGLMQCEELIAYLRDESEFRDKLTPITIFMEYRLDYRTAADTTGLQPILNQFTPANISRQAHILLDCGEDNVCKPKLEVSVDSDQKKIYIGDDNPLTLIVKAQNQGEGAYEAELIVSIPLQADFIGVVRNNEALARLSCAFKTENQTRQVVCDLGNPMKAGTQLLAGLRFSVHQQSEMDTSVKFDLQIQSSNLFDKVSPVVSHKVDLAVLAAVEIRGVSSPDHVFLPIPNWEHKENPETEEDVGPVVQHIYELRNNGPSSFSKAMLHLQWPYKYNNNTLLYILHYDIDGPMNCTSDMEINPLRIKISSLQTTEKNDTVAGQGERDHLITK
T2 sequence (P06756 891-1048 partner limits assumed): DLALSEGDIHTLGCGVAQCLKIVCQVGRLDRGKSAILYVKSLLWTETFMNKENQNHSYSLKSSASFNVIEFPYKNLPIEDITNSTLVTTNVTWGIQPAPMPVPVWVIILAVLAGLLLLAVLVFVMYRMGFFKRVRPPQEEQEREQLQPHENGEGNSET
T2 sequence (P05106 27-788): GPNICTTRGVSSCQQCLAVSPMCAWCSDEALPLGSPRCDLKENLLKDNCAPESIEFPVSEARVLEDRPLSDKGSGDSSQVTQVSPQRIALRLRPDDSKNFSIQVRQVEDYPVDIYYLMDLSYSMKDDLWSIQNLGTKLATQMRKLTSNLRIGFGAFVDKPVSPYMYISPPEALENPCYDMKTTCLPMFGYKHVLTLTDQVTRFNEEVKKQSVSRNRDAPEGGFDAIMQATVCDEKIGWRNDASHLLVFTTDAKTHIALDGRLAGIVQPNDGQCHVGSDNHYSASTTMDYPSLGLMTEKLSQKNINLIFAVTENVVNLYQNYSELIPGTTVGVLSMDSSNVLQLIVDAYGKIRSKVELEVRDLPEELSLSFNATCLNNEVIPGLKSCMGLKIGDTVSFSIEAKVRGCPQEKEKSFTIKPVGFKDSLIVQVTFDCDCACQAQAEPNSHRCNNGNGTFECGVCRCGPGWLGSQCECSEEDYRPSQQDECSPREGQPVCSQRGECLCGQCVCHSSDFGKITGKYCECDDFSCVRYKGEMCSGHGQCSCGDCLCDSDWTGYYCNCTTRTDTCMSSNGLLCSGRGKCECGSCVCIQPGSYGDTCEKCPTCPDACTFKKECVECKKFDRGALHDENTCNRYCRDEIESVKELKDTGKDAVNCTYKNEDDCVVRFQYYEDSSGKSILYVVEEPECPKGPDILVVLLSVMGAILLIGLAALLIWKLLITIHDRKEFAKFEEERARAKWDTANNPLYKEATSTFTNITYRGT
Procedure: 100 nM irisin was incubated with 5 nM indicated his-tag integrins followed by immunoprecipitation using Ni-NTA agaroses. Precipitated integrins and co-precipitated irisin were analyzed by immunoblot analysis. […] HEK293T cells were seeded and incubated until 50% cell density. The cells were transfected with 0.1 μg plasmids of indicated integrins. After 48 hours, the cells were incubated with Freestyle293 medium for 3 hours and were treated with indicated concentration of irisin for 5 minutes. Cells were lysed to detect the indicated protein level using immunoblot analysis. […] MLO-Y4 cells were treated as described in FIG. 2D with addition of pretreatment of indicated antagonistic antibodies for 10 minutes. Cells were lysed to detect the indicated protein level using immunoblot analysis. […] Sclerostin mRNA level was analyzed by qRT-PCR. […]
100 nM irisin was incubated with 5 nM indicated his-tag integrins followed by immunoprecipitation using Ni-NTA agaroses. Precipitated integrins and co-precipitated irisin were analyzed by immunoblot analysis. […] Cells were treated and analyzed as FIG. 14B except using plasmids encoding integrin α5/β1 or integrin α11/β1 (FIG. 15C) integrin αV/β1(FIG. 15D). […]
Cells were harvested in RIPA buffer containing protease-inhibitor cocktail and phosphataseinhibitor cocktail. […] Protein levels were analyzed via western blot using indicated antibody. […]

T1 sequence (Q9UKX5 23-1188): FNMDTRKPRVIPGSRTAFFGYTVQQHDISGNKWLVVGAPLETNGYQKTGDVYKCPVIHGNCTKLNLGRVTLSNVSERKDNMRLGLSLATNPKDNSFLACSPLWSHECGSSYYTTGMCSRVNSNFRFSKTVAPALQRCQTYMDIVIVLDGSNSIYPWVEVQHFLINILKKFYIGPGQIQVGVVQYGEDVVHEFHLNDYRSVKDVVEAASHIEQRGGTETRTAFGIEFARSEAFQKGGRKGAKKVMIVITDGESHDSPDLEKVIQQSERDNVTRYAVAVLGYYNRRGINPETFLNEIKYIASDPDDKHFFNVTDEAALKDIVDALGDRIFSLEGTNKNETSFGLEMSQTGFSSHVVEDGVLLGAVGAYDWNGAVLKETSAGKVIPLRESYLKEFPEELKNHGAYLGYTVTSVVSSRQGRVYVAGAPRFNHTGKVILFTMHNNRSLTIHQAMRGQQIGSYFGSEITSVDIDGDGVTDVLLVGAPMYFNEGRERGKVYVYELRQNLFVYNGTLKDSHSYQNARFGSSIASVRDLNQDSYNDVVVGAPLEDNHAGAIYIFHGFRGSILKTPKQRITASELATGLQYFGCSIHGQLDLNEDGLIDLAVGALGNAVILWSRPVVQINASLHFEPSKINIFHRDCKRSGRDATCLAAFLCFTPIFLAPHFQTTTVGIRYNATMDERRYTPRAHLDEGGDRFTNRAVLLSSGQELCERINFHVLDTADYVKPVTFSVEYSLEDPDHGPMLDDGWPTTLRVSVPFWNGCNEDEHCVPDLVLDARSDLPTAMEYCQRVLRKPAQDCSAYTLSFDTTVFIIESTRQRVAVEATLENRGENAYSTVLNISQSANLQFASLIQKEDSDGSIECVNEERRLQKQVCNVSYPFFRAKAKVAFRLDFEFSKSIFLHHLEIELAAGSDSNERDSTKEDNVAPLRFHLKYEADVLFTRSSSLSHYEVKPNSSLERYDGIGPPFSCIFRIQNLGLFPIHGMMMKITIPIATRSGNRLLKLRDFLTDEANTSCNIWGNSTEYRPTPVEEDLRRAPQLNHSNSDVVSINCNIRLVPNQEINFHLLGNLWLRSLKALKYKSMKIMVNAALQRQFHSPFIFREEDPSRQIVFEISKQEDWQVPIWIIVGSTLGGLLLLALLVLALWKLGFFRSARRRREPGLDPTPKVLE
T1 sequence (P05556 21-798): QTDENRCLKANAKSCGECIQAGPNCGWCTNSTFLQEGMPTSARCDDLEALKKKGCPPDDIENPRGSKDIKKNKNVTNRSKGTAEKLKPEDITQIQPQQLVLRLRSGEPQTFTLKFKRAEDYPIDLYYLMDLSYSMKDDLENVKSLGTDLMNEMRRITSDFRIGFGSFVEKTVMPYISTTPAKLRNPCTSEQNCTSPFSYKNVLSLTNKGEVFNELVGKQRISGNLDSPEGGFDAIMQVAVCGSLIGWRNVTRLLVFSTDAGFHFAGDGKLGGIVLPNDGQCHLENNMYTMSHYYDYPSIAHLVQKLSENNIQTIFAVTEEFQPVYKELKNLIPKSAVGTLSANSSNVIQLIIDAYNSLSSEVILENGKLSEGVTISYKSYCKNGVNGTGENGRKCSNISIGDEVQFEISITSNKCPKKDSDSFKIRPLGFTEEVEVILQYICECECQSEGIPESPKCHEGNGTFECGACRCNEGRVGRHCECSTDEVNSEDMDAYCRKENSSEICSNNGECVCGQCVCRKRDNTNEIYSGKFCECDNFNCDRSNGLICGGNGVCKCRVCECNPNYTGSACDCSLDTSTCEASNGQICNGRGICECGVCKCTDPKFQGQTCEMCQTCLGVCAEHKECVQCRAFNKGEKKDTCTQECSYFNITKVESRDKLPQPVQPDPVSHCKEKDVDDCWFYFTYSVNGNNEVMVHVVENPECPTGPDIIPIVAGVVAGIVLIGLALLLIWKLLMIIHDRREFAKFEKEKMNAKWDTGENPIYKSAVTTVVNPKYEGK

B1: irisin: secreted cleaved form of FNDC5; recombinant human/mouse irisin with C-terminal his tag produced in HEK293 cells (protein)
chain: DSPSAPVNVTVRHLKANSAVVSWDVLEDEVVIGFAISQQKKDVRMLRFIQEVNTTTRSCALWDLEEDTEYIVHVQAISIQGQSPASEPVLFKTPREAEKMASKNKDEVTMKE
modifications: left off: small tags and cut ends
notes: secreted cleaved form of FNDC5; recombinant human/mouse irisin with C-terminal his tag produced in HEK293 cells
For B1, the “phosphorylation of FAK upon irisin treatment” value (integrin α11/β1) was “little phosphorylation of FAK above background” and the “phosphorylation of FAK upon irisin treatment” value (integrin αV/β3) was “not”.
